Results published in US20110190477A1 (G2 INFLAMMATION, published 2011).

Target: T1, peptide 23 (33 mer, full length of the 2nd extracellular loop of hC5aR) (human, N-terminal biotin)
T1 construct: also called peptide no; 23
T1 peptide: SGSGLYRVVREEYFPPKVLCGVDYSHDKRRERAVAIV
Experiment: peptide ELISA, biotin peptide on streptavidin plate

B1: humanized anti-C5aR antibody hAb-Q (antibody, human IgG4 S228P, kappa)
light: DVVMTQSPLSLPVTLGEPASISCRSSQSLVHSNGNTYLHWYLQKPGQSPQLLIYKVSNRFSGVPDRFSGSGSGTDFTLKISRVEAEDVGVYFCSQSTLVPLTFGQGTKLEIKRTVAAPSVFIFPPSDEQLKSGTASVVCLLNNFYPREAKVQWKVDNALQSGNSQESVTEQDSKDSTYSLSSTLTLSKADYEKHKVYACEVTHQGLSSPVTKSFNRGEC
heavy: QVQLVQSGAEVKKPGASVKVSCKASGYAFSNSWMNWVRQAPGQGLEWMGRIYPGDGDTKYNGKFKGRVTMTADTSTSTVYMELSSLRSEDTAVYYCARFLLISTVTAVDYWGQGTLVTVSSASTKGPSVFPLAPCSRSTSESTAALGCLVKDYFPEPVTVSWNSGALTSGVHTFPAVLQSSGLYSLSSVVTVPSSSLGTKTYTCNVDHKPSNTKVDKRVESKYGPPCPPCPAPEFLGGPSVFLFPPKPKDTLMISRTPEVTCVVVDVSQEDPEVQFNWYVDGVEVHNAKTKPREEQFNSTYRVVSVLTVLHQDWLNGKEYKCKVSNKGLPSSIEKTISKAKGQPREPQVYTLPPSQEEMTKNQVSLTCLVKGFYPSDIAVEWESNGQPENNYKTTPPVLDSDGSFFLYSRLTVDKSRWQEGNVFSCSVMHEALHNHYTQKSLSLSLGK
notes: IgG4 with the Ser228Pro mutation; also called antibody Q; anti-C5aR ab
  binding result: binds
